Results reported in patent US20240425589A1, “CYTOTOXICITY-INDUCING THERAPEUTIC AGENT FOR USE IN TREATMENT OF CANCER” (CHUGAI SEIYAKU KABUSHIKI KAISHA, priority 2021, published 2024).

Tests used:
[1] = system: hCLDN6/BaF, hCLDN3/BaF, hCLDN4/BaF, and hCLDN9/BaF; test: FACS analysis of specificity against CLDN family; type: binding, human; conditions: 15 micro g/ml, compared with 6PHU3/TR01
Experimental: Amino acid sequences are highly conserved among CLDN3, CLDN4, CLDN6 and CLDN9. Thus we examined CLDN6 binding specificity of CLDN6 binding Fv comprising 65HQ39E as VH and 54L0532Q38K as VL, by FACS analysis. hCLDN6/BaF, hCLDN3/BaF, hCLDN4/BaF, and hCLDN9/BaF were incubated with an anti-CLDN6/CD3 bispecific antibody (CS2961) comprising the CLDN6 binding Fv CLDN6AE25EK and a CD3 binding Fv (heavy chain variable region SEQ ID NO: 184, light chain variable region SEQ ID NO: 185) at 15 micro g/ml. Another anti-CLDN6/CD3 bispecific antibody (6PHU3/TR01) and an antibody without binding capability to CLDN6 (KLH/TR01) were used as a staining control. 6PHU3/TR01 and KLH/TR01 comprise the same CD3 binding Fv (heavy chain variable region SEQ ID No: 188, light chain variable region SEQ ID NO: 189). The CLDN6 binding Fv of 6PHU3/TR01 comprises a heavy chain variable region shown in SEQ ID NO: 190 and a light chain variable region shown in SEQ ID NO: 191. KLH/TR01 comprises a KLH binding Fv (heavy chain variable region SEQ ID NO: 186, light chain variable region SEQ ID NO: 187).
Binding of each antibody was detected with Alexa Fluor 488-conjugated anti human IgG (Invitrogen). Dead cells were separated by eFlour 780 (Invitrogen) staining. […]

[2] = Single dose toxicology study; type: in vivo, cynomolgus monkey; conditions: cynomolgus monkey, in vivo, iv
Experimental: Potential toxicity of PPU4135 antibody (anti-CLDN6/Dual-Fab tri-specific antibody) was evaluated in toxicity study using cynomolgus monkeys compared with CS3348 antibody (anti-CLDN6/CD3 bispecific antibody). Because both PPU4135 and CS3348 antibodies cross-reacted with their antigens of cynomolgus monkey, cynomolgus monkey was selected as the animal species for evaluations in the in vivo toxicology studies. Since toxicological findings seemed to be more sensitive in male than female animals in the toxicity study with CS3348 (FIG. 14), 2 males were used for evaluation of the PPU4135-mediated toxicity. In these studies, dose levels were set at 100 (for CS3348) or 90 (for PPU4135) micro g/kg, which were approximately 2.57-fold efficacious concentration producing 80% of the maximal response.

Row | Molecule | specificity towards CLDN6 among CLDN3, CLDN4, CLDN6, CLDN9 [1] | AST, ALT, GLDH, ALP, TBIL, GGT, TBA and CRP [2]
1 | CS2961: anti-CLDN6/CD3 bispecific antibody comprising CLDN6 binding Fv CLDN6AE25EK and a CD3 binding Fv (SEQ ID NOs 184, 185) (antibody, V domains shown, CLDN6 binding Fv CLDN6AE25EK lacks SEQ ID) VH: QVQLVESGGGVVQPGGSLRLSCAASGFTFSNAWMHWVRKAPGKGLEWVAQIKDKSQNYATYVAESVKGRFTISRADSKNSIYLQMNSLKTEDTAVYYCRYVHYAAGYGVDIWGQGTTVTVSS VL: DIVMTQSPLSLPVTPGEPASISCRSSQPLVHSNRNTYLHWYQEKPGQAPRLLIYKVSNRFSGVPDRFSGSGSGTDFTLKISRVEAEDVGVYYCGQGTQVPYTFGQGTKLEIK | better specificity towards CLDN6 | –
2 | CS3348: anti-CLDN6/CD3 bispecific antibody, chains SEQ ID NOs 193, 195, 194, 192; used as control (protein) chain 1: QVQLVESGGGVVQPGGSLRLSCAASGFTFSSYTMSWVREAPGQGLEWMGTISSGGGRTYYPDSVKGRFTISRDNSKNTLYLQMNSLRDEDTAVYYCARGDYRYDGFAYWGEGTLVTVSSASTKGPSVFPLAPSSKSTSGGTAALGCLVEDYFPEPVTVSWNSGALTSGVHTFPAVLESSGLYSLSSVVTVPSSSLGTQTYICNVNHKPSNTKVDERVEPKSCDKTHTCPPCPAPEAAGGPSVFLFPPKPKDTLMISRTPEVTCVVVDVSHEDPEVKFNWYVDGVEVHNAKTKPREEQYASTYRVVSVLTVLHQDWLNGKEYKCKVSNKALPAPIEKTISKAKGQPREPQVYTLPPSREEMTKNQVSLTCLVKGFYPSDIAVEWESNGQPENNYKTTPPVLDSDGSFFLYSKLTVDKSRWQQGNVFSCSVMHEALHNHYTQESLSLSP chain 2: DIQMTQSPSSLSASVGDRVTITCRASYNIDSYLAWYQKKPGKAPELLIYYSTLLVDGVPDRFSGSRSGTDFTLTISSLQPEDFATYYCQHYYSIPYTFGQGTKVEIERTVAAPSVFIFPPSDKQLKSGTAKVVCLLNNFYPREAKVQWKVDNALQSGNSKESVTEQDSKDSTYSLSSTLTLSKADYEKHKVYACEVTHQGLSSPVTKSFNRGEC chain 3: QVQLVESGGGVVQPGGSLRLSCAASGFTFSNAWMHWVRKAPGKGLEWVAQIKDKSQNYATYVAESVKGRFTISRADSKNSIYLQMNSLKTEDTAVYYCRYVHYAAGYGVDIWGQGTTVTVSSASTKGPSVFPLAPSSKSTSGGTAALGCLVKDYFPEPVTVSWNSGALTSGVHTFPAVLKSSGLYSLSSVVTVPSSSLGTQTYICNVNHKPSNTKVDKRVEPKSCDKTHTCPPCPAPEAAGGPSVFLFPPKPKDTLMISRTPEVTCVVVDVSHEDPEVKFNWYVDGVEVHNAKTKPREEQYASTYRVVSVLTVLHQDWLNGKEYKCKVSNKALPAPIEKTISKAKGQPREPQVYTLPPSRKEMTKNQVSLTCLVKGFYPSDIAVEWESNGQPENNYKTTPPVLDSDGSFFLYSKLTVDKSRWQQGNVFSCSVMHEALHNHYTQKSLSLSP chain 4: DIVMTQSPLSLPVTPGEPASISCRSSQPLVHSNRNTYLHWYQEKPGQAPRLLIYKVSNRFSGVPDRFSGSGSGTDFTLKISRVEAEDVGVYYCGQGTQVPYTFGQGTKLEIKRTVAAPSVFIFPPSDEQLKSGTAEVVCLLNNFYPREAKVQWKVDNALQSGNSEESVTEQDSKDSTYSLSSTLELSKADYEKHKVYACEVTHQGLSSPVTKSFNRGEC | – | Increased
